Article PMC10352329 (2023)
Substitutions are numbered along the chain they refer to. In names and notes the source's numbering stands. Where no end group is shown, it is not given here.

Legend:
[1] = molecular target: N-terminal bromodomain of human BRD4 (residues 44–168) (human, UniProt O60885 44-168); assay: ITC
[2] = molecular target: 180-bp unmodified nucleosome (human, UniProt P04908 1-130; P68431 1-136; P62805 1-103); assay: MST
[3] = molecular target: T1, human p300BRP (residues 1048–1282), wild type (human, UniProt Q09472 1048-1282, fluorescently labeled with a His tag Labeling Kit (microscale thermophoresis only)); assay: ITC
T1 chain: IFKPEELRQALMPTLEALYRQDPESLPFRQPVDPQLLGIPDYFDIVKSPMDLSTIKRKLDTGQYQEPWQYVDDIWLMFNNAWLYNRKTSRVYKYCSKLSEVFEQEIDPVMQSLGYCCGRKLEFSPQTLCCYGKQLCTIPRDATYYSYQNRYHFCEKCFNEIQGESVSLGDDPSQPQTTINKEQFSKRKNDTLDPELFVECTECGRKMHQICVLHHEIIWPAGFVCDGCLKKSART

B1: di-acetylated H2B peptide K20ac/K23ac (peptide)
chain: KAVTK(Ac)AQK(Ac)KDGK
Kd [1]: > 500 µM

B2: human p300BRP (residues 1048–1282), 4A-substituted mutant (R1133A, K1134A, R1137A, K1140A) (domain or fragment)
chain: T1 chain with R86A, K87A, R90A, K93A
modifications: fluorescently labeled with a His tag Labeling Kit (microscale thermophoresis)
EC50 [2]: 0.0073 µM

B3: di-acetylated H2B peptide K12ac/K15ac (peptide)
chain: PAPKK(Ac)GSK(Ac)KAVTK
Kd [3]: > 500 µM
